Assays:
[1] = molecular target: the molecule itself; assay: non-reducing SDS-PAGE; peak gel filtration fraction of purified pBMP10 on non-reducing SDS-PAGE; Coomassie stain and anti-BMP10 immunoblot
[2] = molecular target: T1, BMPR-II extracellular domain (ECD), human, residues 27-150 (human, UniProt Q13873-1 27-150); assay: native gel or EMSA; 10% native PAGE of purified pBMP10 complex alone or with BMPR-II ECD (molar ratio pBMP10:BMPR-II ECD 1:1, 1:2, 1:4); bands excised and immunoblotted for BMP10 GFD and prodomain; details: both partners purified
T1 construct: Bone morphogenetic protein receptor type II, human, extracellular domain, residues 27-150 (NM_001204); Cloned in pET39b as DsbA-(His)6-TEV site-BMPR2 ECD; also called BMPR-II ECD; BMPR2 ECD; source: E. coli Rosetta DE3, periplasmic extract, purified (Ni-NTA, TEV cleavage, second Ni-NTA flowthrough, S75 gel filtration); not shown: DsbA, N-terminal, cleaved; His6, N-terminal, cleaved
T1 sequence (looked up): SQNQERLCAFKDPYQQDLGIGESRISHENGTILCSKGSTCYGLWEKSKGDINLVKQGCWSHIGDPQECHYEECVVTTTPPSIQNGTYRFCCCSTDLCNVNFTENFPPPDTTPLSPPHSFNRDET

B1: BMP10 growth factor domain (GFD), recombinant human, from the in-house pBMP10 complex (ligand, UniProt O95393 317-424, looked up)
chain: NAKGNYCKRTPLYIDFKEIGWDSWIIAPPGYEAYECRGVCNYPLAEHLTPTKHAIIQALVHLKNSQKASKACCVPTKLEPISILYLDKGVVTYKFKYEGMAVSECGCR
notes: Bone morphogenetic protein 10, human; the mature growth factor domain cut from full-length proBMP10 by furin; Expressed from full-length proBMP10 cDNA, co-transfected with furin; Covalently linked (D-form) and non-covalently linked (M-form) dimers are both in the preparation; also called BMP10 GFD; mature BMP10; source: HEK EBNA cells transfected with proBMP10 and furin in pCEP4; purified from …
Does B1 bind [1]?
Result: binds

Does B1 bind [2]?
Result: binds

— paper PMC4742757, “The Prodomain-bound Form of Bone Morphogenetic Protein 10 Is Biologically Active on Endothelial Cells*” (The Journal of Biological Chemistry, 2015)
